The values below come from patent US20220249633A1.

The target in this assay is HLA-A*24 (human). The assay can be described thus: UV-exchange ELISA, exchange yield grade. A general note: In an ELISA, binding on a coated surface is turned into a signal by an enzyme label.
In turn, SYLTQHQRI [… (SEQ ID NO: 341)] had a peptide exchange yield of 50 to 75%. In the case of VFSPDGHLF [… (SEQ ID NO: 360)] it was 50 to 75%; in that of YYSEVPVKL [… (SEQ ID NO: 358)], 50 to 75%; in that of FYIPHVPVSF [… (SEQ ID NO: 315)], 50 to 75%. With VYFEGSDFKF [… (SEQ ID NO: 316)] the figure was 50 to 75%; with KYLNENQLSQL [… (SEQ ID NO: 364)], 50 to 75%; with VFLPRVTEL [… (SEQ ID NO: 374)], 20 to 49%. KYTEKLEEI [… (SEQ ID NO: 387)] came in with a peptide exchange yield of 50 to 75%. Molecule AYSHLRYVF [… (SEQ ID NO: 371)] displayed a peptide exchange yield of 20 to 49%.

Regarding VFIDHPVHL [… (SEQ ID NO: 365)], the peptide exchange yield is above 75%. With KYSDVKNLI [… (SEQ ID NO: 319)] the figure was above 75%; with KYTDYILKI [… (SEQ ID NO: 375)], 50 to 75%.

As to KYPASSSVF [… (SEQ ID NO: 381)], the peptide exchange yield lay in the range of 50 to 75%. The molecule RFIGIPNQF [… (SEQ ID NO: 370)] yielded a peptide exchange yield of 50 to 75%.

IFHEVPLKF [… (SEQ ID NO: 351)] came in with a peptide exchange yield of 50 to 75%.

In turn, IYVTGGHLF [… (SEQ ID NO: 355)] displayed a peptide exchange yield of 50 to 75%. In the case of EYNSDLHQF [… (SEQ ID NO: 344)] it was 50 to 75%; in that of LYQDHMQYI [… (SEQ ID NO: 367)], 20 to 49%. As to VYNYAEQTL [… (SEQ ID NO: 362)], the peptide exchange yield lay within 20 to 49%. TYGKIDLGF [… (SEQ ID NO: 353)]: the peptide exchange yield is 50 to 75%.

RYKPGEPITF [… (SEQ ID NO: 383)] returned a peptide exchange yield of 50 to 75%. In the case of VYTGIDHHW [… (SEQ ID NO: 380)] it was above 75%.

In the case of VFDTSIAQLF [… (SEQ ID NO: 317)], the peptide exchange yield lay in the range of 50 to 75%.

NYAFLHRTL [… (SEQ ID NO: 342)] came in with a peptide exchange yield of 50 to 75%.

For TYADIGGLDNQI [… (SEQ ID NO: 361)], the peptide exchange yield lay in the range of 50 to 75%. In the case of AYLPPLQQVF [… (SEQ ID NO: 382)] it was 50 to 75%.

In turn, KYGNFIDKL [… (SEQ ID NO: 350)] came in with a peptide exchange yield of 50 to 75%. For QYIEELQKF [… (SEQ ID NO: 385)], the peptide exchange yield is 50 to 75%. NYGVLHVTF [… (SEQ ID NO: 359)] displayed a peptide exchange yield above 75%. With QYLELAHSL [… (SEQ ID NO: 366)] the figure was 50 to 75%; with NYMPGQLTI [… (SEQ ID NO: 356)], above 75%; with TFSDVEAHF [… (SEQ ID NO: 386)], 50 to 75%. As for RYFDVGLHNF [… (SEQ ID NO: 384)], the peptide exchange yield lay in the range of 50 to 75%. With VYVIEPHSMEF [… (SEQ ID NO: 372)] the figure was 50 to 75%.

The molecule QFITSTNTF [… (SEQ ID NO: 357)] showed a peptide exchange yield above 75%. In turn, VYTHEVVTL [… (SEQ ID NO: 369)] came in with a peptide exchange yield of 50 to 75%. Regarding QYGGDLTNTF [… (SEQ ID NO: 352)], the peptide exchange yield fell in the range of 50 to 75%. Take VFIAQGYTL [… (SEQ ID NO: 379)]: the peptide exchange yield is above 75%.

As to TYSNSAFQYF [… (SEQ ID NO: 318)], the peptide exchange yield is 50 to 75%. In turn, VYIAELEKI [… (SEQ ID NO: 378)] had a peptide exchange yield of 50 to 75%. QYSIISNVF [… (SEQ ID NO: 349)] showed a peptide exchange yield of 50 to 75%. With IYGEKTYAF [… (SEQ ID NO: 388)] the figure was 50 to 75%. With EYNSDLHQFF [… (SEQ ID NO: 345)] the figure was 50 to 75%; with QYTPHSHQF [… (SEQ ID NO: 377)], 50 to 75%. With VYAEVNSL [VYAEVNSL (SEQ ID NO: 347)] the figure was 50 to 75%; with SYAELGTTI [… (SEQ ID NO: 363)], 20 to 49%; with IYLEHTESI [… (SEQ ID NO: 348)], 50 to 75%. Molecule VYNEQIRDLL [… (SEQ ID NO: 354)] showed a peptide exchange yield of 50 to 75%. In the case of VYTPVASRQSL [… (SEQ ID NO: 376)] it was 50 to 75%; in that of GYISNGELF [… (SEQ ID NO: 373)], 50 to 75%.

Regarding NYLGGTSTI [… (SEQ ID NO: 343)], the peptide exchange yield fell in the range of 50 to 75%. In turn, KYQNVKHNL [… (SEQ ID NO: 368)] returned a peptide exchange yield of 50 to 75%.
